Assay results taken from patent US20240060046A1.

Target: CD20 on CD20+ human Burkitt's lymphoma cell lines (Ramos, Raji) (human) (UniProt P11836)
Experiment: cell-based or functional assay

Chain of UniProt P11836 (P11836 whole entry): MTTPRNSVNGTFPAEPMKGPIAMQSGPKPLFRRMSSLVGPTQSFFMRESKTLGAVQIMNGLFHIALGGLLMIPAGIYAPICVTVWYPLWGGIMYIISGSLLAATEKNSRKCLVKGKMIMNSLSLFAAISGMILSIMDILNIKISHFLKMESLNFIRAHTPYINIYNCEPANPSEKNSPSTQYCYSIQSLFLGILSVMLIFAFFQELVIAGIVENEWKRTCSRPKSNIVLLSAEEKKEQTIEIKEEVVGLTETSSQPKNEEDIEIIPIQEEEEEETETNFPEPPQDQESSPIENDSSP

“Rituximab (Mabthera or Rituxan) (antibody)” was tested, and the Viable Raji cells (%), long-term ADCC, AB-101 + RTX, 24 hrs (mean of 9 AB-101 batches) was 23.9%, the Viable Raji cells (%), long-term ADCC, AB-101 + RTX, 48 hrs (mean of 9 AB-101 batches) was 11.7% and the Viable Raji cells (%), long-term ADCC, AB-101 + RTX, 72 hrs (mean of 9 AB-101 batches) was 10.1%. The Viable Ramos cells (%), long-term ADCC, AB-101 + RTX, 24 hrs (mean of 9 AB-101 batches) was 47.6%, the Viable Ramos cells (%), long-term ADCC, AB-101 + RTX, 48 hrs (mean of 9 AB-101 batches) was 28.1% and the Viable Ramos cells (%), long-term ADCC, AB-101 + RTX, 72 hrs (mean of 9 AB-101 batches) was 19%. The lysis of Raji target cells at the end of 72 hour co-culture, AB-101 combined with rituximab, E:T 1:1 was 90% and the lysis of Ramos target cells at the end of 72 hrs co-culture, AB-101 combined with rituximab, E:T 1:1 was 80%.
